Patent publication US20110217334A1

Target: serum IgE of birch pollen allergic individuals
Assay: ELISA inhibition, Bet v 1a immobilized, BM4 as inhibitor in serial dilutions

B1: BM4 (protein)
chain: GVFNYETETTSVIPAARLFKAFILDGDNLFPKVAPQAISSVENIEGNGGPGTIKKISFPEGFPFKYVKDRVDEVDHTNFKYNYSVIEGGPIGDTLEKISNEIKIVATPSGSTIKSISNKYHTKGDHEVKAEQVKASKEMGETLLRAVESYLLAHSDAYN
fold reduced patients' IgE binding capacity compared to Bet v 1a: 100 to 1000 fold
